# In US20100047805:
# Tests used:
# Test in all cases: cell_activity
# [1] = tested on: 8196zKK D467A E490K,I538K,D467A (FokI) (synthetic construct); conditions: TI with 8267EL; NHEJ 0.0
# [2] = tested on: 8267RD R487D (FokI) (synthetic construct); conditions: NHEJ with 8196zDR; TI 28.4%
# [3] = tested on: 8196zKK (ZFN-R-KK) E490K,I538K (FokI) (synthetic construct); conditions: NHEJ with 8267EL; TI 29.4%; K562
# [4] = tested on: 8196zDR D483R (FokI) (synthetic construct); conditions: NHEJ with 8267RD; TI 28.4%
# [5] = tested on: 8196zDR D450N D483R,D450N (FokI) (synthetic construct); conditions: TI with 8267RD; NHEJ 0.0
# [6] = tested on: 8196zDR D467A D483R,D467A (FokI) (synthetic construct); conditions: TI with 8267RD; NHEJ 0.0
substance,measurement,setting,value
CCR5 endogenous locus (K562),activity,[1],1.1%
same,activity,[2],36.7%
same,activity,[3],54.3%
same,activity,[4],36.7%
same,activity,[5],1.2%
same,activity,[6],0.7%
